Source: paper doi:10.1101/2021.08.26.457770 (bioRxiv, 2021)
Ends that are not written are not given here.

Biological target: T1, SspB protein (ClpX adaptor) (Escherichia coli, UniProt P0AFZ3 1-165)
T1 sequence: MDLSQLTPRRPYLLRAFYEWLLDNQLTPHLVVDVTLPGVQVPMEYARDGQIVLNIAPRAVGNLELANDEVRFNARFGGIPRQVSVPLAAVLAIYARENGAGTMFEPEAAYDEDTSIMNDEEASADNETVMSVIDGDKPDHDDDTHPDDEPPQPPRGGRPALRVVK
Test: MST

For eGFP-AANDENYSENYADAS (not fully specified) [eGFP-AANDENYSENYADAS], the Kd was 300 nM.

Work on eGFP-AANDENYSENY (not fully specified) [eGFP-AANDENYSENY] yielded a Kd of 100 nM.

Binder eGFP-AANDENYADAS (not fully specified) [eGFP-AANDENYADAS] has a Kd of 330 nM.

eGFP-AANDENYALAA (not fully specified) [eGFP-AANDENYALAA] gave a Kd of 80 nM.
